Measured values from patent US20060211075A1, “Enzyme sensors including environmentally sensitive or fluorescent labels and uses thereof” (The Albert Einstein College of Medicine of Yeshiva …, priority 2005, published 2006).
Blank lines part the entries; values can stand above or below the substance they belong to.

Experiments:
GST-Lck-SH2 [1] = biological target: GST-Lck-SH2 (UniProt P06239); experiment: fluorescence change on Src-catalysed phosphorylation in presence of GST-Lck-SH2 (1.25 µM peptide, 5 µM Lck-SH2, 12 nM Src, 1 mM ATP)
GST-Lck-SH2, sequence (P06239 127-224): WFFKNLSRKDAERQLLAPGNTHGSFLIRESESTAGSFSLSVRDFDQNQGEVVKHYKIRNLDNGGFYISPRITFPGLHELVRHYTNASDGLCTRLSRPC

GST-Lck-SH2 [2] = biological target: GST-Lck-SH2 (UniProt P06239); experiment: fluorescence change on Src-catalysed phosphorylation in presence of GST-Lck-SH2 (1.25 µM peptide, 5 µM Lck-SH2, 12 nM Src, 1 mM ATP); library peptide with -NH(CH2)2SH
[3] = tested on: T1, CC[C@H](C)[C@H](NC(=O)[C@H](CCC(=O)O)NC(=O)[C@H](CNc1ccc([N+](=O)[O-])c2nonc12)NC(=O)[C@H](Cc1ccc(O)cc1)NC(=O)[C@@H](NC(=O)[C@H](CCC(=O)O)NC(=O)[C@H](CCC(=O)O)NC(=O)[C@H](CCC(=O)O)NC(C)=O)[C@@H](C)CC)C(=O)N[C@@H](CCC(=O)O)C(=O)N[C@@H](C)C(N)=O; experiment: purified protein, by the assay type; assay type: biochemical; details: other: Src kinase; Lck-SH2 20 μM; varying peptide; pH 7.5; 30.0 °C
T1 construct: purchased Invitrogen
Description: The fluorescence change was monitored as a function of time. Control assays in the absence of Lck-SH2 were also performed.
The final Src concentration was 30 nM for peptide 13 and 15 nM for peptide 14.

[4] = biological target: phosphorylated peptide 14, Ac-Glu-Glu-Glu-Ile-pTyr-Gly-Glu-Ile-Dab(dapoxyl)-Ala-amide; experiment: Src phosphorylation of 8 µM peptide 14 at 16 µM Lck-SH2, fluorescence
[5] = biological target: phosphorylated peptide 14, Ac-Glu-Glu-Glu-Ile-pTyr-Gly-Glu-Ile-Dab(dapoxyl)-Ala-amide; experiment: Src phosphorylation of 8 µM peptide 14 at 0.2 µM Lck-SH2, fluorescence
[6] = biological target: phosphotyrosine version of peptide 13, Ac-Glu-Glu-Glu-Ile-pTyr-Dap(NBD)-Glu-Ile-Glu-Ala-amide; experiment: Src phosphorylation of 16 µM peptide 13 at 16 µM Lck-SH2, fluorescence
[7] = biological target: phosphorylated peptide 14, Ac-Glu-Glu-Glu-Ile-pTyr-Gly-Glu-Ile-Dab(dapoxyl)-Ala-amide; experiment: Src phosphorylation of 8 µM peptide 14 at 26 µM Lck-SH2, fluorescence
[8] = biological target: phosphotyrosine version of peptide 13, Ac-Glu-Glu-Glu-Ile-pTyr-Dap(NBD)-Glu-Ile-Glu-Ala-amide; experiment: Src phosphorylation of 16 µM peptide 13 at 12 µM Lck-SH2, fluorescence
[9] = biological target: phosphotyrosine version of peptide 13, Ac-Glu-Glu-Glu-Ile-pTyr-Dap(NBD)-Glu-Ile-Glu-Ala-amide; experiment: Src phosphorylation of 16 µM peptide 13 at 32 µM Lck-SH2, fluorescence
[10] = biological target: phosphorylated peptide 14, Ac-Glu-Glu-Glu-Ile-pTyr-Gly-Glu-Ile-Dab(dapoxyl)-Ala-amide; experiment: Src phosphorylation of 8 µM peptide 14 at 4 µM Lck-SH2, fluorescence
[11] = biological target: phosphorylated peptide 14, Ac-Glu-Glu-Glu-Ile-pTyr-Gly-Glu-Ile-Dab(dapoxyl)-Ala-amide; experiment: Src phosphorylation of 8 µM peptide 14 at 32 µM Lck-SH2, fluorescence
[12] = biological target: phosphorylated peptide 14, Ac-Glu-Glu-Glu-Ile-pTyr-Gly-Glu-Ile-Dab(dapoxyl)-Ala-amide; experiment: Src phosphorylation of 8 µM peptide 14 at 8 µM Lck-SH2, fluorescence
[13] = biological target: phosphotyrosine version of peptide 13, Ac-Glu-Glu-Glu-Ile-pTyr-Dap(NBD)-Glu-Ile-Glu-Ala-amide; experiment: Src phosphorylation of 16 µM peptide 13 at 26 µM Lck-SH2, fluorescence
[14] = biological target: phosphorylated peptide 14, Ac-Glu-Glu-Glu-Ile-pTyr-Gly-Glu-Ile-Dab(dapoxyl)-Ala-amide; experiment: Src phosphorylation of 8 µM peptide 14 at 20 µM Lck-SH2, fluorescence
[15] = biological target: phosphotyrosine version of peptide 13, Ac-Glu-Glu-Glu-Ile-pTyr-Dap(NBD)-Glu-Ile-Glu-Ala-amide; experiment: Src phosphorylation of 16 µM peptide 13 at 20 µM Lck-SH2, fluorescence
[16] = biological target: phosphorylated peptide 14, Ac-Glu-Glu-Glu-Ile-pTyr-Gly-Glu-Ile-Dab(dapoxyl)-Ala-amide; experiment: Src phosphorylation of 8 µM peptide 14 at 2 µM Lck-SH2, fluorescence
[17] = biological target: phosphotyrosine version of peptide 13, Ac-Glu-Glu-Glu-Ile-pTyr-Dap(NBD)-Glu-Ile-Glu-Ala-amide; experiment: Src phosphorylation of 16 µM peptide 13 at 8 µM Lck-SH2, fluorescence
[18] = biological target: phosphotyrosine version of peptide 13, Ac-Glu-Glu-Glu-Ile-pTyr-Dap(NBD)-Glu-Ile-Glu-Ala-amide; experiment: fluorescence titration: Src-phosphorylated peptide 13 fixed at 16 µM, GST-Lck-SH2 varied, nonlinear regression
[19] = biological target: phosphotyrosine version of peptide 13, Ac-Glu-Glu-Glu-Ile-pTyr-Dap(NBD)-Glu-Ile-Glu-Ala-amide; experiment: Src phosphorylation of 16 µM peptide 13 at 0 µM Lck-SH2 (baseline point of the titration)
[20] = biological target: phosphotyrosine version of peptide 13, Ac-Glu-Glu-Glu-Ile-pTyr-Dap(NBD)-Glu-Ile-Glu-Ala-amide; experiment: Src phosphorylation of 16 µM peptide 13 at 4 µM Lck-SH2, fluorescence
[21] = biological target: phosphorylated peptide 14, Ac-Glu-Glu-Glu-Ile-pTyr-Gly-Glu-Ile-Dab(dapoxyl)-Ala-amide; experiment: Src phosphorylation of 8 µM peptide 14 at 12 µM Lck-SH2, fluorescence
GST-Lck-SH2 [22] = biological target: GST-Lck-SH2 (UniProt P06239); experiment: fluorescence change on Src-catalysed phosphorylation in presence of GST-Lck-SH2; value in parentheses, amide-capped peptide 14
GST-Lck-SH2 [23] = biological target: GST-Lck-SH2 (UniProt P06239); experiment: fluorescence change on Src-catalysed phosphorylation in presence of GST-Lck-SH2; value in parentheses, amide-capped peptide 13

Substance: Src-phosphorylated library peptide with Dab-5 (dapoxyl on Dab) at P+1 of Ac-Glu-Glu-Glu-Ile-Tyr-Gly-Glu-Ile-Glu-Ala
Fold change in fluorescence intensity (GST-Lck-SH2 [1]): 2.4 fold

Substance: Src-phosphorylated library peptide with Dap-6 (NBD on Dap) at P+3 of Ac-Glu-Glu-Glu-Ile-Tyr-Gly-Glu-Ile-Glu-Ala
Fold change in fluorescence intensity (GST-Lck-SH2 [1]): 1.3 fold

Substance: Src-phosphorylated library peptide with Dab-7 (Cascade Yellow on Dab) at P+4 of Ac-Glu-Glu-Glu-Ile-Tyr-Gly-Glu-Ile-Glu-Ala
Fold change in fluorescence intensity (GST-Lck-SH2 [1]): 1.6 fold

Substance: Src-phosphorylated library peptide with Dap-6 (NBD on Dap) at P+4 of Ac-Glu-Glu-Glu-Ile-Tyr-Gly-Glu-Ile-Glu-Ala
Fold change in fluorescence intensity (GST-Lck-SH2 [1]): 1.3 fold

Substance: Src-phosphorylated library peptide with Dap-7 (Cascade Yellow on Dap) at P+2 of Ac-Glu-Glu-Glu-Ile-Tyr-Gly-Glu-Ile-Glu-Ala
Fold change in fluorescence intensity (GST-Lck-SH2 [1]): 1.8 fold

Substance: Src-phosphorylated library peptide with Dap-5 (dapoxyl on Dap) at P+2 of Ac-Glu-Glu-Glu-Ile-Tyr-Gly-Glu-Ile-Glu-Ala
Fold change in fluorescence intensity (GST-Lck-SH2 [1]): 2.4 fold

Substance: Src (Homo sapiens)
Km [3]: 32 ± 0.5 µM | Vmax [3]: 1.4 ± 0.1 µmol/min/mg

Substance: GST-Lck-SH2 (from UniProt P06239 127-224)
Fluorescence Increase (fold change) [4]: 6.2 fold | Fluorescence Increase (fold change) [5]: 1.07 fold | Fluorescence Increase (fold change) [6]: 1.52 fold | Fluorescence Increase (fold change) [7]: 7.32 fold | Fluorescence Increase (fold change) [8]: 1.41 fold | Fluorescence Increase (fold change) [9]: 1.59 fold | Fluorescence Increase (fold change) [10]: 2.32 fold | Fluorescence Increase (fold change) [11]: 7.2 fold | Fluorescence Increase (fold change) [12]: 4.31 fold | Fluorescence Increase (fold change) [13]: 1.61 fold | Fluorescence Increase (fold change) [14]: 6.85 fold | Fluorescence Increase (fold change) [15]: 1.56 fold | Fluorescence Increase (fold change) [16]: 1.7 fold | Fluorescence Increase (fold change) [17]: 1.33 fold | Kd [18]: 2.1 µM | Fluorescence Increase (fold change) [19]: 1.07 fold | Fluorescence Increase (fold change) [20]: 1.24 fold | Fluorescence Increase (fold change) [21]: 5.34 fold

Substance: Src-phosphorylated library peptide with Dap-7 (Cascade Yellow on Dap) at P+4 of Ac-Glu-Glu-Glu-Ile-Tyr-Gly-Glu-Ile-Glu-Ala
Fold change in fluorescence intensity (GST-Lck-SH2 [1]): 1.4 fold

Substance: phosphotyrosine version of peptide 13, Ac-Glu-Glu-Glu-Ile-pTyr-Dap(NBD)-Glu-Ile-Glu-Ala-amide
Fold change in fluorescence intensity (GST-Lck-SH2 [23]): 1.6 fold

Substance: Src-phosphorylated library peptide with Dap-6 (NBD on Dap) at P+1 of Ac-Glu-Glu-Glu-Ile-Tyr-Gly-Glu-Ile-Glu-Ala
Fold change in fluorescence intensity (GST-Lck-SH2 [2]): 1.6 fold

More lines, now with the values ahead:

Fold change in fluorescence intensity (GST-Lck-SH2 [1]): 1.6 fold
Substance: Src-phosphorylated library peptide with Dab-5 (dapoxyl on Dab) at P+2 of Ac-Glu-Glu-Glu-Ile-Tyr-Gly-Glu-Ile-Glu-Ala

Fold change in fluorescence intensity (GST-Lck-SH2 [2]): 4.1 fold
Substance: Src-phosphorylated library peptide with Dab-5 (dapoxyl on Dab) at P+4 of Ac-Glu-Glu-Glu-Ile-Tyr-Gly-Glu-Ile-Glu-Ala

Fold change in fluorescence intensity (GST-Lck-SH2 [1]): 1.4 fold
Substance: Src-phosphorylated library peptide with Dap-7 (Cascade Yellow on Dap) at P+1 of Ac-Glu-Glu-Glu-Ile-Tyr-Gly-Glu-Ile-Glu-Ala

Fold change in fluorescence intensity (GST-Lck-SH2 [1]): 3.3 fold
Substance: Src-phosphorylated library peptide with Dap-5 (dapoxyl on Dap) at P+3 of Ac-Glu-Glu-Glu-Ile-Tyr-Gly-Glu-Ile-Glu-Ala

Fold change in fluorescence intensity (GST-Lck-SH2 [1]): 1.4 fold
Substance: Src-phosphorylated library peptide with Dab-6 (NBD on Dab) at P+2 of Ac-Glu-Glu-Glu-Ile-Tyr-Gly-Glu-Ile-Glu-Ala

Fold change in fluorescence intensity (GST-Lck-SH2 [1]): 1.7 fold
Substance: Src-phosphorylated library peptide with Dab-7 (Cascade Yellow on Dab) at P+2 of Ac-Glu-Glu-Glu-Ile-Tyr-Gly-Glu-Ile-Glu-Ala

Fold change in fluorescence intensity (GST-Lck-SH2 [1]): 1.7 fold
Substance: Src-phosphorylated library peptide with Dab-6 (NBD on Dab) at P+4 of Ac-Glu-Glu-Glu-Ile-Tyr-Gly-Glu-Ile-Glu-Ala

Fold change in fluorescence intensity (GST-Lck-SH2 [1]): 1.9 fold
Substance: Src-phosphorylated library peptide with Dab-6 (NBD on Dab) at P+3 of Ac-Glu-Glu-Glu-Ile-Tyr-Gly-Glu-Ile-Glu-Ala

Fold change in fluorescence intensity (GST-Lck-SH2 [1]): 1.5 fold
Substance: Src-phosphorylated library peptide with Dab-7 (Cascade Yellow on Dab) at P+1 of Ac-Glu-Glu-Glu-Ile-Tyr-Gly-Glu-Ile-Glu-Ala

Fold change in fluorescence intensity (GST-Lck-SH2 [1]): 3.6 fold
Substance: Src-phosphorylated library peptide with Dab-5 (dapoxyl on Dab) at P+3 of Ac-Glu-Glu-Glu-Ile-Tyr-Gly-Glu-Ile-Glu-Ala

Fold change in fluorescence intensity (GST-Lck-SH2 [1]): 1.6 fold
Substance: Src-phosphorylated library peptide with Dap-7 (Cascade Yellow on Dap) at P+3 of Ac-Glu-Glu-Glu-Ile-Tyr-Gly-Glu-Ile-Glu-Ala

Fold change in fluorescence intensity (GST-Lck-SH2 [1]): 1.3 fold
Substance: Src-phosphorylated library peptide with Dab-6 (NBD on Dab) at P+1 of Ac-Glu-Glu-Glu-Ile-Tyr-Gly-Glu-Ile-Glu-Ala

Fold change in fluorescence intensity (GST-Lck-SH2 [22]): 7.2 fold
Substance: phosphorylated peptide 14, Ac-Glu-Glu-Glu-Ile-pTyr-Gly-Glu-Ile-Dab(dapoxyl)-Ala-amide

Fold change in fluorescence intensity (GST-Lck-SH2 [1]): 2.3 fold
Substance: Src-phosphorylated library peptide with Dap-5 (dapoxyl on Dap) at P+4 of Ac-Glu-Glu-Glu-Ile-Tyr-Gly-Glu-Ile-Glu-Ala

Fold change in fluorescence intensity (GST-Lck-SH2 [1]): 2.1 fold
Substance: Src-phosphorylated library peptide with Dab-7 (Cascade Yellow on Dab) at P+3 of Ac-Glu-Glu-Glu-Ile-Tyr-Gly-Glu-Ile-Glu-Ala
